From patent publication US20180334499A1 (Pieris, published 2018)

T1: recombinant human Ang-2 (human, UniProt O15123 19-496, limits assumed)
T1 construct: also called hAng-2; human angiopoietin-2
T1 sequence (looked up): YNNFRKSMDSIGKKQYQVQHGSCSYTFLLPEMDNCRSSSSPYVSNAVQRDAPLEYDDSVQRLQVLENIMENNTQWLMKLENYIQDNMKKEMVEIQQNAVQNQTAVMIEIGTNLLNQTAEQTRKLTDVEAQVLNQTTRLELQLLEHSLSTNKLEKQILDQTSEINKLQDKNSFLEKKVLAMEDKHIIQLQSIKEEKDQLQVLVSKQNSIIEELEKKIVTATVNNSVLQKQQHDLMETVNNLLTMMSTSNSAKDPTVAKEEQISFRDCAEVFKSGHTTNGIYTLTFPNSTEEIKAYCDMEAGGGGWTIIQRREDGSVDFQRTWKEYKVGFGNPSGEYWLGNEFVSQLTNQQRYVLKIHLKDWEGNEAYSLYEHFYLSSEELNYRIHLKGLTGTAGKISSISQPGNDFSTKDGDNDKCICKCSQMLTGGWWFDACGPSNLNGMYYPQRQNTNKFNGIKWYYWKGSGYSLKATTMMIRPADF

B1: lipocalin mutein of SEQ ID NO: 2 (designed binder)
chain: QDSTSDLIPAPPLSKVPLQQNFQDNQFHGKWYVVGQAGNYILREDKDPGKMWATIYELKEDKSYDVTEVSFGAKKCNYRIWTFVPGSQPGEFTLGGIKSDPGGTSTLVRVVSTNYNQHAMVFFKHVLQNREFFEITLYGRTKELTSELKENFIRFSKSLGLPENHIVFPVPIDQCIDG
notes: hNGAL mutein specific for Ang-2, tested in monomeric form; also called positive control lipocalin mutein; Ang-2-specific lipocalin mutein in monomeric form
B2: lipocalin mutein of SEQ ID NO: 3 (designed binder)
chain: QDSTSDLIPAPPLSKVPLQQNFQDNQFHGKWYVVGHAGNYILREDKDPGKMWATIYELKEDKSYDVTEVSFGPKKCNYRIWTFVPGSQPGEFTLGGIKSPPGGTSTLVRVVSTNYNQHAMVFFKHVLQNREFFEITLYGRTKELTSELKENFIRFSKSLGLPENHIVFPVPIDQCIDG
notes: as for B1
B3: SEQ ID NO: 1 negative control (other)
chain: QDSTSDLIPAPPLSKVPLQQNFQDNQFQGKWYVVGLAGNAILREDKDPQKMYATIYELKEDKSYNVTSVLFRKKKCDYWIRTFVPGCQPGEFTLGNIKSYPGLTSYLVRVVSTNYNQHAMVFFKKVSQNREYFKITLYGRTKELTSELKENFIRFSKSLGLPENHIVFPVPIDQCIDG
notes: Lipocalin negative control; also called mature hNGAL

Molecular target: T1, recombinant human Ang-2
Assay: ELISA, recombinant human Ang-2 coated, detection with anti-human IgG Fc-HRP or anti-lipocalin-HRP, signal normalised (RU %)
Method: Bound agents under study were detected via an anti-human-IgG-Fc antibody or anti-lipocalin antibody as described in Example 3. The data was fit with a 1:1 binding model with EC50 value and the maximum signal as free parameters, and a slope that was fixed to unity.
The target was dissolved in PBS (5 μg/mL) and coated overnight on microtiter plates at 4° C. The plate was washed after each incubation step with 80 μL PBS-T five times. The plates were blocked with 2% BSA (w/v) in PBS for 1 h at room temperature and subsequently washed. […] Bound agents under study were detected after incubation for 1 h at room temperature with 1:1000 diluted anti-lipocalin antibody conjugated to HRP in PBS-T or 1:5000 diluted anti-human IgG Fc-HRP (#109-035-098, Jackson […]) in PBS-T. After an additional wash step, fluorogenic HRP substrate (QuantaBlu, Thermo) was added to each well and the fluorescence intensity was detected using a fluorescence microplate reader.

| Binder | EC50 (read off the curve) | binding result |
| --- | --- | --- |
| B1 | ~0.4 nM |  |
| B2 | ~0.6 nM |  |
| B3 |  | no binding (tested: 100 nM) |
